Source: publication doi:10.1101/2024.08.29.610268

Target: NELF complex WT (NELF-A/B/D/E) (human, UniProt Q9H3P2;Q8WX92;Q8IXH7;P18615 1-528;1-628;1-590;1-380)
Experiment: fluorescence anisotropy

CCAGAUCUGAGCCUGGGAGCUCUCUGG (structured_RNA) [HIV-1 TAR stem loop]
binding result: binds
